# Reference: patent US20100021987
protein,measurement,setting,value
human SENP6 (hSENP6) SUMO protease catalytic domain (protein) MGENHTIFIGPVEKLIVYPPPPAKGGISVTNEDLHCLNEGEFLNDVIIDFYLKYLVLEKLKKEDADRIHIFSSFFYKRLNQRERRNHETTNLSIQQKRHGRVKTWTRHVDIFEKDFIFVPLNEAAHWFLAVVCFPGLEKPKYEPNPHYHENAVIQKCSTVEDSCISSSASEMESCSQNSSAKPVIKKMLNKKHCIAVIDSNPGQEESDPRYKRNICSVKYSVKKINHTASENEEFNKGESTSQKVADRTKSENGLQNESLSSTHHTDGLSKIRLNYSDESPEAGKMLEDELVDFSEDQDNQDDSSDDGFLADDNCSSEIGQWHLKPTICKQPCILLMDSLRGPSRSNVVKILREYLEVEWEVKKGSKRSFSKDVMKGSNPKVPQQNNFSDCGVYVLQYVESFFENPILSFELPMNLANWFPPPRMRTKREEIRNIILKLQEDQSKEKRKHKDTYSTEAPLGEGTEQYVNSISDLEHHHHHH,activity level (grade),6xHis-ySmt3-eGFP,-
same,"cleavage, single enzyme concentration, SDS-PAGE",6xHis-ySmt3-eGFP,did not digest the others at the incubation time and enzyme concentration used
same,activity level (grade),6xHis-T-SUMO-eGFP,-
same,"cleavage, single enzyme concentration, SDS-PAGE",6xHis-T-SUMO-eGFP,did not digest the others at the incubation time and enzyme concentration used
same,activity level (grade),6xHis-hSUMO-3-eGFP,+/-
same,"cleavage, single enzyme concentration, SDS-PAGE",6xHis-hSUMO-3-eGFP,demonstrated partial cleavage of hSUMO-3-eGFP
same,activity level (grade),6xHis-hSUMO-1-eGFP,-
same,"cleavage, single enzyme concentration, SDS-PAGE",6xHis-hSUMO-1-eGFP,did not digest the others at the incubation time and enzyme concentration used
same,activity level (grade),6xHis-AtSUMO1-eGFP,-
same,"cleavage, single enzyme concentration, SDS-PAGE",6xHis-AtSUMO1-eGFP,did not digest the others at the incubation time and enzyme concentration used
same,activity level (grade),6xHis-AtSUMO2-eGFP,-
same,"cleavage, single enzyme concentration, SDS-PAGE",6xHis-AtSUMO2-eGFP,did not digest the others at the incubation time and enzyme concentration used
Arabidopsis thalania ULP1c (AtULP1c) SUMO protease catalytic domain (protein) MVVEEACELPEGLPEDIYYPSSDQSDGRDLVQVSLKDLKCLSPGEYLTSPVINFYIRYVQHHVFSADKTAANCHFFNTFFYKKLTEAVSYKGNDRDAYFVKFRRWWKGFDLFCKSYIFIPIHEDLHWSLVIICIPDKEDESGLTIIHLDSLGLHPRNLIFNNVKRFLREEWNYLNQDAPLDLPISAKVWRDLPNMINEAEVQVPQQKNDFDCGLFLLFFIRRFIEEAPQRLTLQDLKMIHKKWFKPEEASALRIKIWNILVDLFRKGNQTDLEHHHHHH,activity level (grade),6xHis-ySmt3-eGFP,-
same,"cleavage, single enzyme concentration, SDS-PAGE",6xHis-ySmt3-eGFP,AtULP1c did not show activity against any of the SUMO fusions
same,activity level (grade),6xHis-T-SUMO-eGFP,-
same,"cleavage, single enzyme concentration, SDS-PAGE",6xHis-T-SUMO-eGFP,AtULP1c did not show activity against any of the SUMO fusions
same,activity level (grade),6xHis-hSUMO-3-eGFP,-
same,"cleavage, single enzyme concentration, SDS-PAGE",6xHis-hSUMO-3-eGFP,AtULP1c did not show activity against any of the SUMO fusions
same,activity level (grade),6xHis-hSUMO-1-eGFP,-
same,"cleavage, single enzyme concentration, SDS-PAGE",6xHis-hSUMO-1-eGFP,AtULP1c did not show activity against any of the SUMO fusions
same,activity level (grade),6xHis-AtSUMO1-eGFP,-
same,"cleavage, single enzyme concentration, SDS-PAGE",6xHis-AtSUMO1-eGFP,AtULP1c did not show activity against any of the SUMO fusions
same,activity level (grade),6xHis-AtSUMO2-eGFP,-
same,"cleavage, single enzyme concentration, SDS-PAGE",6xHis-AtSUMO2-eGFP,AtULP1c did not show activity against any of the SUMO fusions
human SENP1 (hSENP1) SUMO protease catalytic domain (protein) MASFPEITEEMEKEIKNVFRNGNQDEVLSEAFRLTITRKDIQTLNHLNWLNDEIINFYMNMLMERSKEKGLPSVHAFNTFFFTKLKTAGYQAVKRWTKKVDVFSVDILLVPIHLGVHWCLAVVDFRKKNITYYDSMGGINNEACRILLQYLKQESIDKKRKEFDTNGWQLFSKKSQIPQQMNGSDCGMFACKYADCITKDRPINFTQQHMPYFRKRMVWEILHRKLLEHHHHHH,activity level (grade),6xHis-ySmt3-eGFP,++
same,"cleavage, single enzyme concentration, SDS-PAGE",6xHis-ySmt3-eGFP,"hSENP1, which cleaved ySmt3 the best"
same,activity level (grade),6xHis-T-SUMO-eGFP,+/-
same,"cleavage, single enzyme concentration, SDS-PAGE",6xHis-T-SUMO-eGFP,"It also cleaved the other 4 fusions, but to a much lesser extent"
same,activity level (grade),6xHis-hSUMO-3-eGFP,+
same,"cleavage, single enzyme concentration, SDS-PAGE",6xHis-hSUMO-3-eGFP,"cleaved ySmt3 the best, followed by hSUMO-3"
same,activity level (grade),6xHis-hSUMO-1-eGFP,+/-
same,"cleavage, single enzyme concentration, SDS-PAGE",6xHis-hSUMO-1-eGFP,"It also cleaved the other 4 fusions, but to a much lesser extent"
same,activity level (grade),6xHis-AtSUMO1-eGFP,+/-
same,"cleavage, single enzyme concentration, SDS-PAGE",6xHis-AtSUMO1-eGFP,"It also cleaved the other 4 fusions, but to a much lesser extent"
same,activity level (grade),6xHis-AtSUMO2-eGFP,+/-
same,"cleavage, single enzyme concentration, SDS-PAGE",6xHis-AtSUMO2-eGFP,"It also cleaved the other 4 fusions, but to a much lesser extent"
